Data: the DeepSol protein solubility set

Assay: soluble on expression in E. coli; label from the status in PepcDB or PDB records

| Sequence | soluble on expression in E. coli |
| --- | --- |
| MHKIRVIESTLGYPQKNRMESESYEGVQTYMDMKDGSLIAVQPNKDDLMSQILSPDNLNRAYLQVVRNKGVGGVDRMDFKQLLPYLHEHKSELIESIRIGRYKPNSVRRVDIAKDNGKKRLIGIPTVVDRLIQQAIVQVLSPIYERQFSPSSFGFRPDVVRMLEHHHHHH | not soluble |
| MHKVVIVGRPNVGKSSLFNRLLKKRSAVVADVPGVTRDLKEGVVETDRGRFLLVDTGGLWSGDKWEKKIQEKVDRALEDAEVVLFAVDGRAELTQADYEVAEYLRRKGKPVILVATKVDDPKHELYLGPLYGLGFGDPIPTSSEHARGLEELLEAIWERLPVRQIETEPEVAGIRLAIVGRPNAGKSSLLNAILGEERVIVSEEPGTTRDAIDVEFFFGGQRFVLVDTAGIRKRPENLVEELAIRRSLRAMDEADVVLLVVDPFQVGDRELKLANEALDRGKPVLLVITKWDLVDKEDAPKMRRLLREKLAHLDHLPRVFTSALTRQNLDRIFREAVRLHELNQTRVPTAELNRWVAVWTSRVQMPNFKGKPLKILYATQPEVAPPTFVFFVNHPEFVTRAFENYLKNRIGEDLGLREVPFRLVFRGRREE | soluble |
| MHNKIVRIASSALTGGKLLEKLKPLTRWEVQWDPNKTKCLGITREVTFKDYETTWAFLTRVSMRSHLWGHHPLIHTSYTWVKLELHTHDIDPKDGAHSQLSDIDVRMAKRIDSYIDEMTT | not soluble |
| MHNNENVSGISAYLLGLIWGDGGLYKLKYKGNRSEYRVVITQKSENLIKQFIAPRMQFLIDELNVKSKIQIVKGDTRYELRVSSKKLYYYFANMLERIRLFNGNRFLAYLAGIVDGDGSIIAQIKPNQSYKFKHQLSLTFQVTQKTERRWFLDKLVDEIGVGYVRDRGSVSDYILSEIKPLHNFLTQLQPFLNFKQKQANLVLKIIEQLPSAKESPDKFLEVCTWVDQIAALNDSKTRKTTSETVRAVLDSLSEKKKSSP | soluble |
| MHPMNILLKLPLKIPLMIIEKAREILEKHPLCNHCLGRMFAKLGKGTNEERGKAIRLILSMELNREVKEPENCELCQGIFRRMNELLDLVRNAVEDYEFQTFQIGSRFPKDILEKEKKIWEEFGITTGEPINREFNRELGKLFAKVTGKIPNRERPDIVIIVEPFSSKVELQVNPIYVAGRYRKLVRGIPQTPAPGFEESIATIICRVFKKNFRGKCIFKGAGREDVDVRTLGRGRPFVVEIKKPRKRKVDLKLIEEEINSSGKVEVLELKFITPEESEKILTARHKKIYEALVYVKDGVSAEEVEKVVKSLKGSEIKQRTPRRVLNSRADIVRVRRVYNVSGEYIDEHHFKLKLVTDGGLYIKELISGDKGRTKPSVSEILGKEAWCEILDVLDVLDGDENVEGDS | soluble |
| MHPSLRYIQGYPQNIVEQVSSLVDNGKLIPWFEKRYPDRHQIKSEKALYEYAIAIKNRYMKKASPISKVVYDKKIHAVNNALGLHSVISRNHGGKLKSKNEIRIANVFKDAPEALLRMLVVHELAHTREKNHDKAFYQLCCYMEPEYHQLELDARLFMIYLDLKANSNEEQLEHHHHHH | soluble |
| MHQAPATSTDENPPIESDVPMHHVYPSHHHHQHYQLPHLQQHPHPYSYPLYTFPYPIAPAFHQAQNPPMTSSVASGANGEHHHQPQQFFAPQYQVIPAGAIPVSTINIDPSQICPVDQMGMWTLPPPTGPNGMRYGIPIPAPLVPQITSSIMEASKMTSSTHTNATILNAMTASTSSNDSSSESGVSGVKEAKDEKKKSKIQADEKLRHEERQSTSDYTDDDPIPFTSRRSITGSVSYNYAEQIAERRRVEQQQEDRERQEMLEVERQRRVLEDRRNSEEEIRKQAELDRVEKDRLRMEQAAAAMEKARKEAELAKRARIYKHVFRGAEEEGGTEQLEELEQKILGVDIETGRRLLKEVSEVEWHKKQDEAEIRKNAPPQSDRSAHNLSSLSSGNQSARGRSSSISSPCKPDTSFTRNSIGRRSVRTTSREKQQESPKSSDQAVQHPLAASTPVRRPPRQPQALPTQDEIHVAREVPLANKSTTPSPTRSEMLRSAAIYCPINRDPLSQREELRAINRSTSNTGAYHNNNNNNNSKFEGAGVSRYNEITQTALFGPIATRNSIRRGTMRGTGLPSPPSVRVSTQNHQNQQRTSSFDESSSGGEEGGSISPDLGHKNFESPLPSSTENVHPASNSPPMKQIEGFEFKTPTRARSALSSPMSNFMNGGDNDSPISRPASRLMQRLEQKGTIRRDDEIISQEIRRVAETNLSRSPSLASLRGSMSNLAFRASQLNLAGTSGELPPNLTKFASVNSPARQSLSSMKKTTDRQAAVLERLGRLRESLHAGKNYTPPRNGISSSSRITTPAQTPPISPRPVM | not soluble |
| MHRPEAEKWLRRFERAPDARARLVCLPHAGGSASFFFPLAKALAPAVEVLAVQYPGRQDRRHEPPVDSIGGLTNRLLEVLRPFGDRPLALFGHAMGAIIGYELALRMPEAGLPAPVHLFASGRRAPSRYRDDDVRGASDERLVAELRKLGGSDAAMLADPELLAMVLPAIRSDYRAVETYRHEPGRRVDCPVTVFTGDHDPRVSVGEARAWEEHTTGPADLRVLPGGHFFLVDQAAPMIATMTEKLAGPALTGSTGGNSLEHHHHHH | soluble |
| MHRVEETRRIAPEEGNPVLISQIKDASGNITVAVREEGGQARAVKGAASVYALAMEAANGGKSLADVVSAHGLGDAVDLDKAYAEGRFLPPITHPDPAHLHLTGTGLTHLGSAATRDSMHKKTTEAAEESLTDSMKMFRMGLENGKPKAGEKGVQPEWFYKGNGHVAAAPGAALTSPSFALDGGEEPEMAGIYVISDKGEAVRIGFAVSNEFSDHVTERVNYLYLAHSKLRPASFGPEIRVGAAPSDIRGTSRIRRGDKVIFEKPFVSGEDNMSHTFANLEYHHFKYGLFRAPGDVHVHMFGTATLSFAEGIKPEAGDVFEIEAAGFGLPLKNPLAVDSEEEIVVRQI | not soluble |
| MHSFPPLLLLLFWGVVSHSFPATLETQEQDVDLVQKYLEKYYNLKNDGRQVEKRRNSGPVVEKLKQMQEFFGLKVTGKPDAETLKVMKQPRCGVPDVAQFVLTEGNPRWEQTHLTYRIENYTPDLPRADVDHAIEKAFQLWSNVTPLTFTKVSEGQADIMISFVRGDHRDNSPFDGPGGNLAHAFQPGPGIGGDAHFDEDERWTNNFREYNLHRVAAHELGHSLGLSHSTDIGALMYPSYTFSGDVQLAQDDIDGIQAIYGRSQNPVQPIGPQTPKACDSKLTFDAITTIRGEVMFFKDRFYMRTNPFYPEVELNFISVFWPQLPNGLEAAYEFADRDEVRFFKGNKYWAVQGQNVLHGYPKDIYSSFGFPRTVKHIDAALSEENTGKTYFFVANKYWRYDEYKRSMDPGYPKMIAHDFPGIGHKVDAVFMKDGFFYFFHGTRQYKFDPKTKRILTLQKANSWFNCRKN | soluble |
| MHSMKLLVTGGMGFIGSNFIRYILEKHPDWEVINIDKLGYGSNPANLKDLEDDPRYTFVKGDVADYELVKELVRKVDGVVHLAAESHVDRSISSPEIFLHSNVIGTYTLLESIRRENPEVRFVHVSTDEVYGDILKGSFTENDRLMPSSPYSATKAASDMLVLGWTRTYNLNASITRCTNNYGPYQFPEKLIPKTIIRASLGLKIPIYGTGKNVRDWLYVEDHVRAIELVLLKGESREIYNISAGEEKTNLEVVKIILRLMGKGEELIELVEDRPGHDLRYSLDSWKITRDLKWRPKYTFDEGIKKTIDWYLKNEWWWKPLVDERILHPTPWKLKW | soluble |
| MHTFFVTSTGFGVGLTSTSLGLVRALEYGGLKAGFYKPVAQQHPGNSKLEYSTELISRTLGLAPPAPLPLATVEHLLGEGQIDDLMEDIVRRFKQASEGYDVMVVEGMVPTRHVSYASRVNTRLASSLDADIILVSSAEDDALQAITDRIEIQAQFFGGAQNPRLLGVILNKIRTDHSDDLFEQLKNHSTLFHQSSFQILGCIPWEDSLNAPRMADVVTQLQAQ | not soluble |
| MHTFILLLTVLCAGAYTQFTANGQAAILNVHNTLRSRIAKGTYVARGTVKHAASDMLKMKWLRSLATSSQIYANRCPTGHSNMIGVGENLYWYWTSGTITNIDQFGAMASAAWEKEFQDYGWSSNTLTMSLFNSGVGHATQMAWAKTNLIGCGVKNCGMDTNGMNKVAVVCHYQPQGNYLNQNIYTSGTTCSKCPAGTSCEAATGLCV | not soluble |
